A short description of the data set: soluble on expression in E. coli; label from the status in PepcDB or PDB records.
With “MLYPNERKSSVHAIPYQDQLKQVQSAVDEFQKANGGLLPIQTKDMSTPLYQKYPIDFNRLAPRYIAEPPSTAFESGGDYQYVLVDVENDPTVKLIDLKMAEKIRDVKLRIQMYRQEHQYPPYKDVLSRDLFTLDEKKLGDGSSLTVTSPISGNSLPLMIDGDGEIYADYRTELASCLKKSKKTFKPGTEIQDMIWHETPFVPAFSVKYTVNDKQEPVFLENDMKKELEHHHHHH”, the “soluble on expression in E. coli” value is reported as “soluble”.
On to “MMEHDRARTRAWVLHPELKSDLDRRDPVPALEEAVALAAALPDLDVVGSGIVRLPKPHPGHLFGSGKVEELATLFHDNEVELVLIDGPLSPVQQRNLEKAWKVKILDRTGLILEIFSDRARTREGVLQVEMAALSYQRTRLVRAWTHLERQRGGLGFVGGPGETQIEADRRAIDEQLVRLKRQLDKVVKTRELHRKARAKVPYPIVALVGYTNAGKSTLFNRLTGAEVMAKDMLFATLDPTMRRVVLPDGPEVILSDTVGFISDLPTELVAAFRATLEEVLAADLIVHVRDIHHAATEEQARDVETILASLGVDEGRPKFEVWNKVDLLDPDKRAALRERTARDPSLFAVSAVTGEGLESLLTAIAEALAETRSEAVLTLGFADGKRRAWLFAQDVVQAEEQSDDGFRLTVLWTPRQAARYAALLEHHHHHH”, for which the “soluble on expression in E. coli” value is “soluble”.
Then “MMETEVAVVPLTPLDIHNKEFSRGFRGYDEDEVNEFLDQVIKDYEMLIREKKQLEEKVAELTEKLNYFANIEETLNKSILVAQEAAEEVKRNAQKEAKLIIKEAEKNAERIISDALAKSRKIALEIEELKRQSKVFRARFRMLVEAQLDMINSRDWDELMEYEAPDLEEGAREPLSQP”, with “not soluble”.
Then “MMIKVGAAINGTDSPKAMKREHDNDDGDRTGRHKRPKTDGFTEAIQQGKFEVRLLVSSKSAGAIIGKGGENIKRLRAEFNAHVQVPDSNTPERVCTVTADEKTVLNILKDVLPRLEDNFSERDPCEVRMLVHQSHAGALIGRNGSKIKELREKCSARLKIFTGCAPGSTDRVLITSGEQKNVLGIIEEVMKELKEIPIKGSATPYLPAFNYDPSNISDYGGFPGNMPAGGPPNNRGPAPQRGGQGPPGGPRSYGGAITQGGGQRSFEAGDFQQFRGGPGPVPGYAMSAPGYPPQQGQFGAPNNAGYGYGPGGGGPVTTAQVTIPSDLGGTIIGRGGERIARIRQESGAQITLEQSNGQPERIITIKGTEQQIHSAQYLLQQCVRNSTQGRERFGGSV”, with “not soluble”; and “MMINIQEDKLVSAHDAEEILRFFNCHDSALQQEATTLLTQEAHLLDIQAYRAWLEHCVGSEVQYQVISRELRAASERRYKLNEAMNVYNENFQQLKVRVEHQLDPQNWGNSPKLRFTRFITNVQAAMDVNDKELLHIRSNVILHRARRGNQVDVFYAAREDKWKRGEGGVRKLVQRFVDYPERILQTHNLMVFL”, with “soluble”; and “MMINTQEDKLVSAHDAEEFHRFFVGHDSDLQQEVTTLLTREAHLLDIQAYKAWLEHFVAPEIKYQVISRELRSTSERRYQLNDAVNLYNENYQQLKVRVEHQMDPQNWANNPKIRFTRFVTNVTAAKDKSAPEILHVRSNLILHRARRENQVDVFYATREDKWKRIEGGGIKLVERFVDYPERIPQTHNLLVFL”, with “soluble”.
Then “MMKEASEPLASVTSINKQDSKVQDGEIRKEKIGTITPSKQHSSVHFFPKIMDSDSTTLIPLSRSFSQEMPIGFYQITSTQNSSTLSSRGQLASKSTILSCSHKDSSLGKQSTSSMVPRRQPQSSSDVDTYTFGNGEDYFLSLFGESKKLTAHTPQAENVSEHLSVILEEVGQFTSSSLGEIKIAEVNIKGLFVRLVNSSNEKEVEIGNHILQQNVNGHAVSLYQFPDNITLQANSTVTVWAAASEAKPQPPTDFVWEEQSKFRSSPDCTTILCKPNGEAIAWYTPIHWKQAWEKLETDIEFERCSVVVPSMRNHMFGWITASVSSTNEEKEEPIQKTPSQVYPVLYREKEIPPTVLPNKSPWCRNPNTSPHPYSSLIDSHDSDISESSLDTQLKPQPTKPKPDPGTKKKKAKS”, with “soluble”; and “MMKLNLFINANETESYIDIHAPKMNDHVQSIINAVNDLDKSHTLVGYIDKEIHIINVSDVITFQVINKNVTAITSNQKFKLKLRLYELEKQLPQHFIRISKSEIVNKYYIEKLLLEPNGLIRMYLKDAHYTYSSRRYLKSIKERLSI”, with “not soluble”; and “MMKNPNDIGFIHDISSLDSLRQKAVKEGKDGEQEALHAAARQFESIFTSMMLKSMREANEGFESNIMNSQNEKFYRQMLDEQMASELSANGSMGLADMIVAQLTAGQGNDKSETAMRDAANSAVEYRRVDPKKAREIEKRLIESGELSRTSHTPAKFDSPESFVNSMKPYAEKAAKALGVEPSLLLAQAALETGWGQKVVQNARGSSNNLFNIKADRSWQGDKVTTQTLEFHDNTPVKETAAFRSYSNYQDSFNDYVRFLNDNPRYETALQQRGDSESFIRGIHRAGYATDPTYADKVLQVKQKIESM”, with “not soluble”.
Take “MMKRARIIYNPTSGRELFKRHLPDVLVRLEKAGYETSCHATEGPGDATKAARQAVLREFDLVVAAGGDGTINEVVNGIADQPYRPKLGVIPVGTTNDFARAIGVPRSIEGACEVIATGEPVPIDIGCVTNEDKTRYFINIAGGGRLTELTYEVPSKLKTMLGQLAYYLKGIEMLPSIKATEAQIEYDGKLFEGEIMMFLVSLTNSVGGFEKLAPDSSLNDGLFDFIIVKKTNLAEFIRLVTLAARGEHINDPHIIYTKANRVKVRSPMQLNLDGEFGGMLPGEFVNLYRHLEVIMPKDKAEQVRTGR”: the “soluble on expression in E. coli” value is reported as “not soluble”.
On to “MMLITTSHRPTRRTRSFGHDLERVIPNSLYLTRGKKTIQELLMEAYDRGYERLLIINVWKGNPLKMTFIKVHPEDWGYLGYLYLHGVKLQREMGFKGLNPIREDMPLVITTAKRVGLDHLAFAQVFSELTTGKFVPRGDKSLLSIADRYNTDVLAVIERHPRGIVINFYRLDITKDRPVGPLINVKIWIMEDGRRWDYKEAFGIKVPPRRREFEGKRGEGKNSDLEHHHHHH”, for which the “soluble on expression in E. coli” value is “not soluble”.
With “MMNQLRVTRKEPVKIRIQRKTSQNHAKGIEEMEMAVAVGVKMGQDAVEGNWKRKIIPKKTAIREILKSDEEITVRHLKIGLKSRRLPSCLIRKEPKDNNVSYEETGEGEYFEEENRKNSNNANSSNSRNTGRGNKGGKERESLNDNESSNEETEGRRSVKKTNTLNEDNNGNSIRKESNLSNDEETDEVVDTHRINTEDDEEDEEKPPTEKGTPKRKDRKSDSRSTSKGFGSGGRGRAEYTEDGDDDESNRRSVNFEKDGNGRMVKTETERSSTHAQDYDKKGSKKKKHRVSENGSEEEEVSTSFSSSSSKSSSSSSLSRRTTWDGNNNNTNRRRRNRFD”, the “soluble on expression in E. coli” value is “not soluble”.
Take “MMNTDNRLLTRESSEHIREFFSTVERLSVSMERLFAGRSPAMAGENFYTDRELAEKLKVSRRSLQQYRDSGLLAFTRLGGKILYRSSDIEKLLDGCYREARTRPEEL”: the “soluble on expression in E. coli” value is reported as “not soluble”.
Then “MMRISEKGITLIKEFEGCSLKAYPDPGTGGDPWTIGYGWTHSVDGKPVKPGMMIDEATAERLLKTGLVGYENDVSRLVKVKLTQGQFDALVSFAYNLGARTLSTSTLLRKLNAGDYAGAADEFLRWNKAGSKVLNGLTRRREAERALFLS”, with “not soluble”; and “MMSDRHFQGNRIRLRAPEPEDLEVMFRFENATDVWEMSNTTGPYSRFQLKQYIEQTQNDLFADRQLRLMIENGNRQVVGIVDLCSFDPLHNRAEVGIMVDKSCRRQGIGRNALALLEEHCFRYLGIHQLFAYIAVENLPSRRLFAACGYKESAVLKEWAHTFGGGYTDVLVVQKLNLS”, with “not soluble”.
As for “MMSIFRKLMPREDRFFDMFSKHSETVIKAAAALDQLLSGIDVEKNCDLIVALENQADDITREVLLAVRRSFITPFDRGDIKDLIQSMDDAIDMMHKTVKTIRLFEQSEFDPLMKEMGHEIVRAAGLIAEAIPLLNKVGANAQRLSAIAEEVTRVEGRSDDLHDQGLKDLFRRHGANGNAMAYMIGSEIYGELEKVVDRFEDVANEISGIVIENVLEHHHHHH”, the “soluble on expression in E. coli” value is “soluble”.
With “MMTMMATFLDVIDQKARSHYDEGKGLALRSLDPEADAAQLQQWFSMDYARFWSMQDSSVHQVRDFYTALCSSGHAGAWLGLHHGRAAFLVECYDPARDQVGEHYCVRPGDLGMHLLIAPPTEHIPGFSRAVFALVMRFMFDRLHAARVVVEPDVNNTKIHALNLSMGFVYAGLARFREKTASLAFCTRAQFEQAQRQELTQ”, the “soluble on expression in E. coli” value is on record as “not soluble”.
Then “MMTYEYILVRYGEMTTKGKNRSKFVSTLKDNVKFKLKKFPNIKIDATHDRMYIQLNGEDHEAVSERLKDVFGIHKFNLAMKVPSELEDIKKGALAAFLQVKGDVKTFKITVHRSYKHFPMRTMELLPEIGGHILENTEDITVDVHNPDVNVRVEIRSGYSYIMCDERMGAGGLPVGVGGKVMVLLSGGIDSPVAAYLTMKRGVSVEAVHFHSPPFTSERAKQKVIDLAQELTKYCKRVTLHLVPFTEVQKTINKEIPSSYSMTVMRRMMMRITERIAEERNALAITTGESLGQVASQTLDSMHTINEVTNYPVIRPLITMDKLEIIKIAEEIGTYDISIRPYEDCCTVFTPASPATKPKREKANRFEAKYDFTPLIDEAVANKETMVLQTVEVVAEEEKFEELF”, with “not soluble”.
Then “MMVYPVKHSPLLRQPEHFIARDELKALVQKVTHNLVNIKDETGEFLLRLDDGRVIDTKGWAGWEWTHGVGLYGMYHYYQQTGDQTMRKIIDDWFADRFAEGATTKNVNTMAPFLTLAYRYEETRNPAYLPWLETWAEWAMNEMPRTDHGGMQHITLAEENHQQMWDDTLMMTVLPLAKIGKLLNRPEYVEEATYQFLLHVQNLMDKETGLWFHGWSYDGHHNFANARWARGNSWLTIVIPDFLELLDLPENNAVRRYLVQVLNAQIAALAKCQDESGLWHTLLDDPHSYLEASATAGFAYGILKAVRKRYVERHYAQVAEKAIRGIVKHISPEGELLQTSFGTGMGHDLDFYRHIPLTSMPYGQAMAMLCLTEYLRNYF”, with “not soluble”; and “MMYALIVCNGSIIDYSFYRKFFDEADFIVCADGGALHLQRLGIKPDVLLGDFDSIESEHLEYYMKQNVEILKFPAEKDMTDTELAVNTAIDRGYKNIVIIGGTGTRLDHTLSNIFLLKLMLDRGVKGRIINEYNEMFLINDSTEIEAEDGCYLTLLPLTSKVEGITTEGLYYPLRGEAIEMGSTRGVSNCFVEKKARISITSGILIAIKTRE”, with “not soluble”.
Then “MNAAQVQALIRMGLPMAEDIDFRVERLDERHALARIPFHGKLVRPGGTLSGPTIMALADAAMYAVILGRLGAVEMAVTSNLNINFLSKPRPEDLLAEASILKLGRRQVVCEVGVFSQSNEEDLVAHVTGTYALPLLEHHHHHH”, with “soluble”; and “MNAEERFDRITRLTRRIFALPICVVTLVDASRQWFKSCQGLEVTETSRDISFCGHAINHDGIFIVNDAQMDPRFHDNPLVTQSPHIRFYAGYPLTIRGEYRVGTLCLIGNEPREFSADDIETLTDLGQMVEAELLSISLNTLDPLEHHHHHH”, with “not soluble”.

Values taken from the DeepSol protein solubility set.
